From patent US20210095041A1 (published 2021)

Assays:
[1] = target: Clone #1; test: MSD-SET; Fab
[2] = target: Clone #15; test: MSD-SET; Fab
[3] = target: Clone #14; test: MSD-SET; Fab
[4] = target: Clone #18; test: MSD-SET; Fab
[5] = target: Clone #20; test: MSD-SET; Fab
[6] = target: Clone #17; test: MSD-SET; Fab
[7] = target: Clone #13; test: MSD-SET; Fab
[8] = target: Clone #1; test: BLI (ForteBio Octet); IgG, monovalent
[9] = target: Clone #8; test: BLI (ForteBio Octet); IgG, monovalent
[10] = target: Clone #4; test: BLI (ForteBio Octet); IgG, monovalent
[11] = target: Clone #7; test: BLI (ForteBio Octet); IgG, monovalent
[12] = target: Clone #10; test: BLI (ForteBio Octet); IgG, monovalent
[13] = target: Clone #15; test: BLI (ForteBio Octet); IgG, monovalent
[14] = target: Clone #2; test: BLI (ForteBio Octet); IgG, monovalent
[15] = target: Clone #14; test: BLI (ForteBio Octet); IgG, monovalent
[16] = target: Clone #5; test: BLI (ForteBio Octet); IgG, monovalent
[17] = target: Clone #11; test: BLI (ForteBio Octet); IgG, monovalent
[18] = target: Clone #18; test: BLI (ForteBio Octet); IgG, monovalent
[19] = target: Clone #9; test: BLI (ForteBio Octet); IgG, monovalent
[20] = target: Clone #20; test: BLI (ForteBio Octet); IgG, monovalent
[21] = target: Clone #17; test: BLI (ForteBio Octet); IgG, monovalent
[22] = target: Clone #3; test: BLI (ForteBio Octet); IgG, monovalent
[23] = target: Clone #16; test: BLI (ForteBio Octet); IgG, monovalent
[24] = target: Clone #6; test: BLI (ForteBio Octet); IgG, monovalent
[25] = target: Clone #13; test: BLI (ForteBio Octet); IgG, monovalent
[26] = target: Clone #12; test: BLI (ForteBio Octet); IgG, monovalent
[27] = target: Clone #19; test: BLI (ForteBio Octet); IgG, monovalent

B1: Biotinylated Human CD39-His (enzyme)
chain: TQNKALPENVKYGIVLDAGSSHTSLYIYKWPAEKENDTGVVHQVEECRVKGPGISKFVQKVNEIGIYLTDCMERAREVIPRSQHQETPVYLGATAGMRLLRMESEELADRVLDVVERSLSNYPFDFQGARIITGQEEGAYGWITINYLLGKFSQKTRWFSIVPYETNNQETFGALDLGGASTQVTFVPQNQTIESPDNALQFRLYGKDYNVYTHSFLCYGKDQALWQKLAKDIQVASNEILRDPCFHPGYKKVVNVSDLYKTPCTKRFEMTLPFQQFEIQGIGNYQQCHQSILELFNTSYCPYSQCAFNGIFLPPLQGDFGAFSAFYFVMKFLNLTSEKVSQEKVTEMMKKFCAQPWEEIKTSYAGVKEKYLSEYCFSGTYILSLLLQGYHFTADSWEHIHFIGKIQGSDAGWTLGYMLNLTNMIPAEQPLSTPLSHSTYV
Kd [1]: 2.1 nM | Kd [2]: 0.38 nM | Kd [3]: 0.15 nM | Kd [4]: 0.038 nM | Kd [5]: 0.61 nM | Kd [6]: 0.099 nM | Kd [7]: 0.17 nM

B2: Human CD39-His (enzyme)
chain: TQNKALPENVKYGIVLDAGSSHTSLYIYKWPAEKENDTGVVHQVEECRVKGPGISKFVQKVNEIGIYLTDCMERAREVIPRSQHQETPVYLGATAGMRLLRMESEELADRVLDVVERSLSNYPFDFQGARIITGQEEGAYGWITINYLLGKFSQKTRWFSIVPYETNNQETFGALDLGGASTQVTFVPQNQTIESPDNALQFRLYGKDYNVYTHSFLCYGKDQALWQKLAKDIQVASNEILRDPCFHPGYKKVVNVSDLYKTPCTKRFEMTLPFQQFEIQGIGNYQQCHQSILELFNTSYCPYSQCAFNGIFLPPLQGDFGAFSAFYFVMKFLNLTSEKVSQEKVTEMMKKFCAQPWEEIKTSYAGVKEKYLSEYCFSGTYILSLLLQGYHFTADSWEHIHFIGKIQGSDAGWTLGYMLNLTNMIPAEQPLSTPLSHSTYV
Kd [8]: 8.04 nM | Kd [9]: 28.3 nM | Kd [10]: 3.65 nM | Kd [11]: 94.3 nM | Kd [12]: 37.3 nM | Kd [13]: 1.97 nM | Kd [14]: 11.6 nM | Kd [15]: 1.25 nM | Kd [16]: 29.6 nM | Kd [17]: 14.7 nM | Kd [18]: 0.706 nM | Kd [19]: 124 nM | Kd [20]: 3.89 nM | Kd [21]: 1.14 nM | Kd [22]: 3.25 nM | Kd [23]: 3.81 nM | Kd [24]: 177 nM | Kd [25]: 1.19 nM | Kd [26]: 1.38 nM | Kd [27]: 28.3 nM
